Substrate: Nc1ncnc2c1ncn2[C@@H]1O[C@H](COP(=O)(O)OP(=O)(O)OP(=O)(O)O)[C@@H](O)[C@H]1O
Test: NADH-coupled ATPase assay (pyruvate kinase / lactate dehydrogenase), fit with Hill coefficient
Assay type: biochemical, Mycolicibacterium smegmatis
Details: 0.1 μM complex in 0.05% DDM micelles, 20 mM Tris-HCl pH 8.0, 150 mM NaCl, 5 mM MgCl2, 10% glycerol, 37 °C, Michaelis-Menten with Hill term (n = 1.28 ± 0.57)

B1: YrbE1A/B-MceG (core ABC transporter of the Mce1 system) (Mycolicibacterium smegmatis MC2 155) (protein)
chain: MGVQIDVTGLSKSFGSSKIWEDVTMSIPAGEVSVLLGPSGTGKSVFLKSLIGLLRPERGSIVIDGTDILQCSAKELYEIRTLFGVLFQDGALFGSMNIYDNTAFPLREHTKKSESEIRKIVMEKLDLVGMPNDGHKFPGEISGGMRKRAGLARALVLDPEIILCDEPDSGLDPVRTAYLSQLLIDINAQIDATVLIVTHNINIARTVPDNMGMLFRKQLVMFGPREVLLTSEEPVVKQFLNGRRIGPIGMSEEKDEATAAAEQALVDAGQHDGGVEEIEGVPPQLQATPGMPERKAVARRKARVREILHTLPPAAQAAILEELDRDQPQLSAPTTQTAATAPVENYDDSPTGVIEVPKQA
notes: YrbE1A, His6-YrbE1B and MceG co-expressed in E. coli BL21(λDE3); DDM-solubilised, TALON and SEC purified; with ABC transporter permease YrbE1A (Mce1 transmembrane domain protein); ABC transporter permease YrbE1B (Mce1 transmembrane domain protein)
Km: 284 ± 311 µM | kcat: 0.184 ± 0.125 μM ATP s^−1/μM complex

Source: article PMC10517005, “A conserved membrane protein negatively regulates Mce1 complexes in mycobacteria” (Nature Communications, 2023)
